Data: the Immune Epitope Database (IEDB)

Key:
HLA-B*58:01 = assay: IEDB peptide-MHC binding, purified MHC/direct/fluorescence; filed as Kd, often an IC50 or EC50 that approximates it; ≥ and ≤ were set here for values at or beyond the usual limits of such assays
HLA-A*03:01 = assay: as above
HLA-A*01:01 = assay: as above
HLA-B*57:01 = assay: as above; conditions: source organism: Mycobacterium tuberculosis str. Haarlem
HLA-B*15:01 [1] = assay: as above
HLA-B*07:02 [2] = assay: as above
HLA-B*46:01 = assay: as above
HLA-A*31:01 [3] = assay: as above
HLA-B*44:02 = assay: as above
HLA-B*39:01 = assay: as above; conditions: source organism: Mycobacterium tuberculosis str. Haarlem
HLA-B*27:05 = assay: as above
HLA-A*02:01 [4] = assay: as above
HLA-C*07:02 = assay: as above
HLA-C*12:03 = assay: as above; conditions: source organism: Homo sapiens
HLA-A*02:01 [5] = assay: IEDB peptide-MHC binding, purified MHC/competitive/radioactivity; ≥ and ≤ were set here for values at or beyond the usual limits of such assays
HLA-A*24:02 [6] = assay: IEDB peptide-MHC binding, purified MHC/direct/fluorescence; filed as Kd, often an IC50 or EC50 that approximates it; ≥ and ≤ were set here for values at or beyond the usual limits of such assays
HLA-C*05:01 = assay: as above
HLA-C*15:02 = assay: as above
HLA-A*69:01 = assay: as above
HLA-A*11:01 [7] = assay: as above
HLA-B*18:01 = assay: as above; conditions: source organism: Giardia lamblia ATCC 50803
HLA-B*08:02 = assay: as above; conditions: source organism: Giardia lamblia ATCC 50803
HLA-B*15:09 = assay: as above
HLA-B*40:01 = assay: as above
HLA-B*08:01 = assay: IEDB peptide-MHC binding, purified MHC/competitive/fluorescence; ≥ and ≤ were set here for values at or beyond the usual limits of such assays
HLA-A*02:06 = assay: IEDB peptide-MHC binding, purified MHC/competitive/fluorescence; filed as Kd, often an IC50 or EC50 that approximates it; ≥ and ≤ were set here for values at or beyond the usual limits of such assays; conditions: source organism: Burkholderia orbicola
HLA-A*02:01 [8] = assay: as above
HLA-A*26:01 = assay: IEDB peptide-MHC binding, purified MHC/direct/fluorescence; filed as Kd, often an IC50 or EC50 that approximates it; ≥ and ≤ were set here for values at or beyond the usual limits of such assays; conditions: source organism: Vibrio vulnificus CMCP6
HLA-C*14:02 = assay: as above
HLA-B*07:02 [9] = assay: IEDB peptide-MHC binding, purified MHC/competitive/fluorescence; filed as Kd, often an IC50 or EC50 that approximates it; ≥ and ≤ were set here for values at or beyond the usual limits of such assays; conditions: source organism: Yersinia pestis Nepal516
HLA-B*51:01 = assay: as above; conditions: source organism: Yersinia pestis Nepal516
HLA-A*02:01 [10] = assay: IEDB peptide-MHC binding, purified MHC/competitive/fluorescence; ≥ and ≤ were set here for values at or beyond the usual limits of such assays; conditions: source organism: Zaire ebolavirus
HLA-A*24:02 [11] = assay: as above; conditions: source organism: Zaire ebolavirus
HLA-B*15:01 [12] = assay: as above; conditions: source organism: Zaire ebolavirus
HLA-A*68:02 = assay: IEDB peptide-MHC binding, purified MHC/competitive/fluorescence; filed as Kd, often an IC50 or EC50 that approximates it; ≥ and ≤ were set here for values at or beyond the usual limits of such assays; conditions: source organism: Campylobacter jejuni subsp. jejuni 81-176
HLA-C*06:02 = assay: IEDB peptide-MHC binding, purified MHC/direct/fluorescence; filed as Kd, often an IC50 or EC50 that approximates it; ≥ and ≤ were set here for values at or beyond the usual limits of such assays; conditions: source organism: Influenza A virus (A/chicken/Fujian/25/00(H9N2))
HLA-B*83:01 = assay: IEDB peptide-MHC binding, purified MHC/competitive/fluorescence; filed as Kd, often an IC50 or EC50 that approximates it; ≥ and ≤ were set here for values at or beyond the usual limits of such assays; conditions: source organism: Listeria monocytogenes serotype 4b str. CLIP 80459
HLA-B*15:42 = assay: as above; conditions: source organism: Listeria monocytogenes serotype 4b str. CLIP 80459
HLA-A*11:01 [13] = assay: as above; conditions: source organism: Listeria monocytogenes serotype 4b str. CLIP 80459
HLA-B*45:06 = assay: as above; conditions: source organism: Listeria monocytogenes serotype 4b str. CLIP 80459
HLA-A*31:01 [14] = assay: as above; conditions: source organism: Listeria monocytogenes serotype 4b str. CLIP 80459
HLA-A*68:23 = assay: as above; conditions: source organism: Listeria monocytogenes serotype 4b str. CLIP 80459
[15] = source organism: Mycobacterium tuberculosis str. Haarlem
[16] = source organism: Listeria monocytogenes EGD-e
[17] = source organism: Vibrio cholerae
[18] = source organism: Giardia lamblia ATCC 50803
[19] = source organism: Vibrio vulnificus
[20] = source organism: Yersinia pestis Nepal516
[21] = source organism: Zaire ebolavirus
[22] = source organism: Influenza A virus (A/chicken/Fujian/25/00(H9N2))

FHARFVQAL
Kd (HLA-B*58:01; [15]): ≥ 20000 nM
Kd (HLA-A*03:01; [15]): ≥ 20000 nM
Kd (HLA-A*01:01; [15]): ≥ 20000 nM
Kd (HLA-B*57:01): ≥ 20000 nM
Kd (HLA-B*15:01 [1]; [15]): ≥ 20000 nM
Kd (HLA-B*07:02 [2]; [15]): ≥ 20000 nM
Kd (HLA-B*46:01; [15]): ≥ 20000 nM
Kd (HLA-A*31:01 [3]; [15]): ≥ 20000 nM
Kd (HLA-B*44:02; [15]): ≥ 20000 nM
Kd (HLA-B*39:01): 55.6 nM
Kd (HLA-B*27:05; [15]): ≥ 20000 nM
Kd (HLA-A*02:01 [4]; [15]): ≥ 20000 nM

FLLENAAYL
Kd (HLA-C*07:02; source organism: Homo sapiens): 354 nM
Kd (HLA-C*12:03): 291 nM

FLPNDFFPSV
IC50 (HLA-A*02:01 [5]; source organism: Hepatitis B virus): 1.1 nM

HVDIRTLED
IC50 (HLA-A*02:01 [5]; source organism: Human papillomavirus 16): 25000 nM

ISPRNYFTF
Kd (HLA-A*24:02 [6]; source organism: Toxoplasma gondii): ≤ 1 nM

KAAETYHVF
Kd (HLA-B*58:01; source organism: Listeria monocytogenes): 22 nM
Kd (HLA-C*05:01; [16]): ≥ 20000 nM
Kd (HLA-C*15:02; [16]): 36 nM

KLIDRTESL
IC50 (HLA-A*02:01 [5]; source organism: Homo sapiens): 102 nM

KLTEEIIKL
Kd (HLA-A*69:01; [17]): 2210 nM
Kd (HLA-C*15:02; source organism: Vibrio cholerae MAK 757): ≥ 20000 nM
Kd (HLA-A*02:01 [4]; [17]): 42.1 nM

KRVDWSVEY
Kd (HLA-A*11:01 [7]; source organism: SARS-CoV1): 8740 nM
Kd (HLA-B*15:01 [1]; source organism: SARS-CoV1): 2720 nM
Kd (HLA-B*27:05; source organism: SARS-CoV1): 258 nM
Kd (HLA-C*07:02; source organism: SARS-CoV1): 261 nM

LYLYVPFLW
Kd (HLA-A*24:02 [6]; source organism: Bacillus cereus 03BB108): 55 nM

MIYELCTFR
Kd (HLA-B*58:01; [18]): ≥ 20000 nM
Kd (HLA-B*18:01): ≥ 20000 nM
Kd (HLA-A*03:01; [18]): 844 nM
Kd (HLA-A*01:01; [18]): ≥ 20000 nM
Kd (HLA-B*15:01 [1]; [18]): ≥ 20000 nM
Kd (HLA-B*07:02 [2]; [18]): ≥ 20000 nM
Kd (HLA-B*08:02): ≥ 20000 nM
Kd (HLA-B*44:02; [18]): ≥ 20000 nM
Kd (HLA-B*15:09; [18]): ≥ 20000 nM
Kd (HLA-B*40:01; [18]): ≥ 20000 nM
Kd (HLA-B*27:05; [18]): ≥ 20000 nM
Kd (HLA-A*02:01 [4]; [18]): ≥ 20000 nM

MLYQLLEAV
IC50 (HLA-B*08:01; source organism: Vaccinia virus Copenhagen): ≥ 303000 nM

MQACPVDAI
Kd (HLA-A*02:06): 1.3 nM
Kd (HLA-A*02:01 [8]; source organism: Burkholderia orbicola): 8.6 nM

QSDIAGAIH
Kd (HLA-B*58:01; [19]): ≥ 20000 nM
Kd (HLA-A*24:02 [6]; [19]): ≥ 20000 nM
Kd (HLA-A*11:01 [7]; [19]): ≥ 20000 nM
Kd (HLA-A*03:01; [19]): ≥ 20000 nM
Kd (HLA-A*69:01; [19]): ≥ 20000 nM
Kd (HLA-A*01:01; [19]): 1660 nM
Kd (HLA-B*15:01 [1]; [19]): ≥ 20000 nM
Kd (HLA-B*07:02 [2]; [19]): ≥ 20000 nM
Kd (HLA-B*46:01; [19]): ≥ 20000 nM
Kd (HLA-A*31:01 [3]; [19]): ≥ 20000 nM
Kd (HLA-A*26:01): ≥ 20000 nM
Kd (HLA-B*44:02; [19]): ≥ 20000 nM
Kd (HLA-B*15:09; source organism: Vibrio vulnificus CMCP6): ≥ 20000 nM
Kd (HLA-B*40:01; [19]): ≥ 20000 nM
Kd (HLA-B*27:05; [19]): ≥ 20000 nM
Kd (HLA-A*02:01 [4]; [19]): ≥ 20000 nM

RAMKALSSI
Kd (HLA-C*14:02; [20]): 413 nM
Kd (HLA-C*05:01; [20]): ≥ 20000 nM
Kd (HLA-C*15:02; [20]): 17 nM
Kd (HLA-B*07:02 [9]): 12.6 nM
Kd (HLA-B*51:01): 253 nM

RGVRLHPLA
IC50 (HLA-B*08:01; [21]): ≥ 242000 nM
IC50 (HLA-A*02:01 [10]): ≥ 87800 nM

SAICSVVRR
IC50 (HLA-A*02:01 [5]; source organism: Hepatitis B virus subtype adw2): 1430 nM

SFKAALSSL
IC50 (HLA-A*24:02 [11]): 668 nM
IC50 (HLA-B*08:01; [21]): 45600 nM
IC50 (HLA-B*15:01 [12]): 15200 nM
IC50 (HLA-A*02:01 [10]): ≥ 358000 nM

SGKNIKRTL
IC50 (HLA-B*08:01; [21]): 63600 nM

SVAHSAYEL
Kd (HLA-A*68:02): ≤ 0.1 nM

TVFYNIPPM
Kd (HLA-C*14:02; source organism: Human herpesvirus 4 strain B95-8): 3 nM

VLEKGIPTL
IC50 (HLA-A*02:01 [5]; source organism: Rhinovirus A): 200 nM

VRKCLQLIF
Kd (HLA-C*07:02; source organism: Saccharomyces cerevisiae): 53 nM

WMMAMRYPI
Kd (HLA-C*06:02): ≥ 20000 nM
Kd (HLA-C*05:01; [22]): ≥ 20000 nM
Kd (HLA-C*07:02; [22]): 1840 nM
Kd (HLA-A*02:01 [8]; [22]): 0.2 nM

YTYDLAEYR
Kd (HLA-B*83:01): ≥ 5000 nM
Kd (HLA-B*15:42): ≥ 5000 nM
Kd (HLA-A*11:01 [13]): 21.3 nM
Kd (HLA-B*45:06): ≥ 5000 nM
Kd (HLA-A*31:01 [14]): 8.3 nM
Kd (HLA-A*68:23): ≤ 0.1 nM
